# Data reported in US20180036441A1 (Dana-Farber, published 2018).
# T1: MUC1-SEA-His protein (UniProt P15941 1039-1148, limits assumed)
# T1 construct: domain: SEA; Recombinant antigen used for ELISA coating and as Biacore analyte; also called MUC-SEA-His; antigen protein; not shown: His tag
# T1 sequence (looked up): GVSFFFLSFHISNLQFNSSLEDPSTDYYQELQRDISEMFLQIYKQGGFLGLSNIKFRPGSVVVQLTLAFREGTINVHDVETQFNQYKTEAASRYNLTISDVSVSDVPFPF
# B1: VH5 + VL1 (antibody, V domains shown)
# VH: EVQLVQSGAEVKKPGESLKISCKGSGYAFSNFWMNWVRQMPGKGLEWMGQIYPGDGDTNYNGKFKGQVTISADKSISTAYLQWSSLKASDTAMYYCARSYYRSAWFAYWGQGTLVTVSL
# VL: EIVLTQSPDFQSVTPKEKVTITCRASQSIGTSIHWYQQKPDQSPKLLIKYASESISGVPSRFSGSGSGTDFTLTINSLEAEDAATYYCQQSNNWPLTFGQGTKVEIK
# notes: Humanized IgG expressed in HEK293; also called humanized antibody VH5+VL1
# Assays:
# [1] = target: T2, MUC1 on HCT116/MUC1 cells (UniProt P15941 24-1255, limits assumed); assay: FACS titration on HCT116/MUC1 cells
# T2 construct: whole, on cells; also called MUC1 overexpressed cell line
# Experimental: (§1) To assess cell binding, 2×10⁵ HCT116/MUC1 cells per well were washed with PBS twice and incubated in 200 μl of serial dilutions of chimeric or humanized antibodies for 1 hour at room temperature. After washing 3 times with PBS, secondary antibody (2 μg/ml Alexa Flour®488 goat anti-human IgG) was added to cells and incubated for 30 minutes at room temperature. After washing with PBS, cells were analyzed by using FACSCalibur (BD Bioscience, San Jose, Calif.) and Flowjo software.
# [2] = target: T2, MUC1 on HCT116/MUC1 cells; assay: FACS titration, HCT116/MUC1 cells, antibody at 125 nM
# Experimental: as §1
# [3] = target: T2, MUC1 on HCT116/MUC1 cells; assay: FACS titration, HCT116/MUC1 cells, antibody at 250 nM
# Experimental: as §1
# [4] = target: T2, MUC1 on HCT116/MUC1 cells; assay: FACS titration, HCT116/MUC1 cells, antibody at 500 nM
# Experimental: as §1
# [5] = target: T2, MUC1 on HCT116/MUC1 cells; assay: FACS titration, HCT116/MUC1 cells, antibody at 62.5 nM
# Experimental: as §1
# MUC1-SEA-His protein = target: T1, MUC1-SEA-His protein; assay: SPR Biacore T200, antibody captured, antigen as analyte
# Experimental: Antibody affinity was determined using a Surface Plasmon Resonance (SPR) biosensor, Biacore T200 (GE Healthcare). Antibody was immobilized on the sensor chip through Fc capture method. Antigen protein was used as the analyte. The data of dissociation (kd) and association (ka) rate constants were obtained using Biacore T200 evaluation software. The apparent equilibrium dissociation constants (KD) were calculated from the ratio of kd over ka. For affinity ranking, twenty-five humanized antibodies plus chimericantibody were injected and captured on sensor chip individually. The antibodies were ranked based on their dissociation rates (kd).
# [6] = target: T2, MUC1 on HCT116/MUC1 cells; assay: FACS titration, HCT116/MUC1 cells, antibody at 0.244 nM
# Experimental: as §1
# [7] = target: T2, MUC1 on HCT116/MUC1 cells; assay: FACS titration, HCT116/MUC1 cells, antibody at 0.488 nM
# Experimental: as §1
# [8] = target: T2, MUC1 on HCT116/MUC1 cells; assay: FACS titration, HCT116/MUC1 cells, antibody at 0.977 nM
# Experimental: as §1
# [9] = target: T2, MUC1 on HCT116/MUC1 cells; assay: FACS titration, HCT116/MUC1 cells, antibody at 1.953 nM
# Experimental: as §1
# [10] = target: T2, MUC1 on HCT116/MUC1 cells; assay: FACS titration, HCT116/MUC1 cells, antibody at 3.906 nM
# Experimental: as §1
# [11] = target: T2, MUC1 on HCT116/MUC1 cells; assay: FACS titration, HCT116/MUC1 cells, antibody at 31.25 nM
# Experimental: as §1
# [12] = target: T2, MUC1 on HCT116/MUC1 cells; assay: FACS titration, HCT116/MUC1 cells, antibody at 7.812 nM
# Experimental: as §1
# [13] = target: T2, MUC1 on HCT116/MUC1 cells; assay: FACS titration, HCT116/MUC1 cells, antibody at 15.625 nM
# Experimental: as §1
# T2 sequence (P15941 24-1255 limits assumed): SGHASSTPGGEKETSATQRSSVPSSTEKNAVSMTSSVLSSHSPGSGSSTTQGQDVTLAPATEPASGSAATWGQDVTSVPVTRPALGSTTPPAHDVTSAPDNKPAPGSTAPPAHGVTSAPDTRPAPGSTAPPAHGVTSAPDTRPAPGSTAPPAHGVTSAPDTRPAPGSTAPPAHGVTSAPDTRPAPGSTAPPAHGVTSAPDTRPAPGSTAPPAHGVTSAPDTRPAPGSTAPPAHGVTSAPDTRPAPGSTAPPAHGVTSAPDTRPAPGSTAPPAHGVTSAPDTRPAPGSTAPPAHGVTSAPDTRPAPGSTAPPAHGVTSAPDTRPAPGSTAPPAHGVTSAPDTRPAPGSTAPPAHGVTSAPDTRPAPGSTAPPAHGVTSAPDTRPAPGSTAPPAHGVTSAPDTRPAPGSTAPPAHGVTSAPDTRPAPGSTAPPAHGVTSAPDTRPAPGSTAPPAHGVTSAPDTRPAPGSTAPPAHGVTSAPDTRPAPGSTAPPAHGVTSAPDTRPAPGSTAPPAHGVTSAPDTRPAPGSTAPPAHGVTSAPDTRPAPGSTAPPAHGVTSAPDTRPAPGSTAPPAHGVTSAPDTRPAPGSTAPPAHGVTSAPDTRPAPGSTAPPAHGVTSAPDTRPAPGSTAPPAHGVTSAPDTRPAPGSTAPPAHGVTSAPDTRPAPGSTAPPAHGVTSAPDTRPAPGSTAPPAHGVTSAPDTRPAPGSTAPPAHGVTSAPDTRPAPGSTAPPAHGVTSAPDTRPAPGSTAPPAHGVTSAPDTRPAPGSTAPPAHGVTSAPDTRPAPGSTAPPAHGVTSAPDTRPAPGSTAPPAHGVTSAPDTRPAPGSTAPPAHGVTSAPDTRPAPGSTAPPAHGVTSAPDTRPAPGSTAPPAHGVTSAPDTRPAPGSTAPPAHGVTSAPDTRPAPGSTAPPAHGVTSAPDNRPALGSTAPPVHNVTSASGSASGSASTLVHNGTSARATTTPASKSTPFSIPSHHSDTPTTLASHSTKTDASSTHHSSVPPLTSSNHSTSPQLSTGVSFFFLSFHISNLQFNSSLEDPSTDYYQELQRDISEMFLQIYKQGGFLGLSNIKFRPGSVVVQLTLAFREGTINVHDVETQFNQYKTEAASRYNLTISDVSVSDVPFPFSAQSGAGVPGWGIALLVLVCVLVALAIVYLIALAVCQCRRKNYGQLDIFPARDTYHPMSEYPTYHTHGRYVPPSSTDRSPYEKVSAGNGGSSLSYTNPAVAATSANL
binder,measurement,setting,value
B1,EC50,[1],23.6 nM
same,geometric mean,[2],326
same,geometric mean,[3],327
same,geometric mean,[4],316
same,geometric mean,[5],291
same,koff,MUC1-SEA-His protein,0.00192 s⁻¹
same,geometric mean,[6],2.67
same,geometric mean,[7],2.93
same,geometric mean,[8],4.25
same,geometric mean,[9],7.02
same,geometric mean,[10],20
same,geometric mean,[11],219
same,geometric mean,[12],29.7
same,geometric mean,[13],91.2
